Measured values taken from patent US12668821B2, “Enzymatic production of glucaric acid from glucuronic acid” (THE GOVERNING COUNCIL OF THE UNIVERSITY OF TORONTO, priority 2019, dated 2026).
Positions count from the first letter of the chain named. Names and notes keep the numbering of the source. “Also recorded” adds a separate entry of the source. Where two headings read alike, the source gives them in different places.

Legend:
[1] = Degradation of MeGlcA by H2O2 (HPAEC-PAD); type: physicochemical; settings: up to 100 mM H2O2, 50 mM Tris pH 8.0, 40° C., 16 h
Method: FIG. 10: HPAEC-PAD analyses of H2O2 effects on AxyAgu115A activity and MeGlcA degradation.
AxyAgu115A (10 μg/mL) was incubated with 1% glucuronoxylan in 50 mM Tris buffer pH 8.0 in the presence of various H2O2 concentrations (0.01-100 mM). MeGlcA (1 mM) was also incubated with the same H2O2 concentrations. The reactions were kept in the dark at 40° C. for 16 h in a thermomixer (Eppendorf, USA). Catalase (200 μg/mL) was then added, and the reactions were kept incubating for another 30 min to remove H2O2 before HPAEC-PAD analysis.
Even at 200 mM H2O2, GOOX-Y300A retained more than 50% of its activity on glucose and 100% of its activity on cellobiose (Vuong et al., 2016).

[2] = Kinetics of GOOX-Y300A on MeGlcA (H2O2 colorimetric assay); type: biochemical; settings: up to 60 mM MeGlcA, 0.3 M Tris buffer pH 8.0, 40° C.
Method: (§1) The specific activity of GOOX-Y300A (16 nM) on MeGlcA and GlcA (1 mM) was measured in 50 mM Tris buffer pH 8.0 at 40° C. The amount of methyl glucaric acid was determined by measuring the release of H2O2 using a previously published colorimetric assay (Lin et al., 1991). The kinetics of GOOX-Y300A on these acidic sugars were measured at the same condition, but using up to 60 mM MeGlcA and GlcA and in 0.3 M Tris buffer pH 8.0.
There was a dose response for the production of methyl glucaric acid, as the relative abundance of methyl glucaric acid increased when the substrate concentration was raised from 1 mM to 10 mM.

[3] = Foumani et al., 2011; read-out: Km on glucose; cited from earlier work
[4] = 200 mM H2O2; cited from earlier work
[5] = 200 mM H2O2; cited from earlier work; remark: listed apart in the source
[6] = MeGlcA oxidation by GOOX-Y300A, substrate consumption by HPAEC-PAD; type: biochemical; settings: after 24 h, 300 mM Tris buffer, 60 mM MeGlcA, based on substrate consumption
Description: Reaction samples were vacuum-filtered using 0.22-μm, PVDF filter plates (Millipore, USA) with a Tecan liquid handler (500 mbar) (Tecan Trading AG, Switzerland). The flow-through was collected to Nunc™ 96-well polypropylene microplates (Thermo Fisher Scientific, USA), and covered with Nunc™ 96-well silicone cap mats. The presence of acidic sugars was detected using an ICS5000 HPAEC-PAD system (Dionex, USA) with a CarboPac PA1 (2×250 mm) analytical column (Dionex, USA). The HPAEC-PAD samples were eluted at 0.25 mL/min using NaOAc gradient (0-0.5 M) in 0.1 M NaOH. Chromatograms were analyzed using Chromeleon 7.2 (Dionex, USA).
In an attempt to improve the oxidation of GOOX-Y300A, the ionic strength of the Tris buffer was increased to 300 mM and the concentration of MeGlcA was brought up to 60 mM, higher than its Km. NSI-MS confirmed an increase in the intensity ratio of methyl glucaric acid over MeGlcA (FIG. 9). […] Provided that a similar xylan source was used, the conversion yield reported from the 3-enzyme pathway by Lee et al. (2016) (Lee et al., 2016a) was estimated ca. 20%, as determined by measuring NADH absorbance at 340 nm.

[7] = Activity screening of GOOX variants and glucose oxidase on GlcA; type: biochemical; settings: enzyme 16 nM, 37° C., 10 mM GlcA (FIG. 11 legend; b102 says 100 mM), 100 mM Tris pH 8.0 (GOOX variants) or 50 mM sodium acetate pH 5.0 (GO)
Method: (§2) FIG. 11: Activity screening of GOOX variants and glucose oxidase (GO) on GlcA and MeGlcA substrates. The enzymes (16 nM) were assayed at 37° C. with 10 mM GlcA and 1 mM MeGlcA in 100 mM Tris buffer pH 8.0 (for GOOX variants) or 50 mM sodium acetate pH 5.0 (for GO). The dotted line indicates the activity of GOOX-VN for MeGlcA for ease of comparison. “CtCBM22A-wtGOOX” and “CtCBM22A-Y300A” represent fusion proteins where the C terminus of the xylan-binding protein CtCBM22A (described in Vuong and Master, 2014) is fused to the N terminus GOOX.
as §1

[8] = Activity screening of GOOX variants and glucose oxidase on MeGlcA; type: biochemical; settings: for nmol oxidized MeGlcA Mean: enzyme 16 nM, 37° C., 1 mM MeGlcA (FIG. 11 legend; b102 says 10 mM), 100 mM Tris pH 8.0 (GOOX variants) or 50 mM sodium acetate pH 5.0 (GO)
Method: as §2, §1

Which “loss of MeGlcA in the presence of H2O2” value [1] does the source give for CO[C@@H]([C@H](O)[C@@H](O)C=O)[C@H](O)C(=O)O [MeGlcA, 4-O-methyl D-glucuronic acid] here?
Its value is “no loss of MeGlcA; also recorded: did not cause a loss of MeGlcA”.

B1: Y300A: GOOX variant with Y300A relative to SEQ ID NO: 1 (protein, listed as Sarocladium strictum)
chain: NSINACLAAADVEFHEEDSEGWEMDGTAFNLRVDYDPVAIAIPRSTEDIAAAVQCGLDAGVQISAKGGGHSYGSYGFGGEDGHLMLELDRMYRVSVDDDNVATIQGGARLGYTALELLDQGNRALTHGTCPAVGIGGHVLGGGYGFATHTHGLTLDWLVGATVVLADASIVHVSKTENADLFWALRGGGGGFAIVSEFEFNTFEAPEIITTYQVTTTWNRKQHVAGLKALQDWAENTMPRELSMRLEINANALNWEGNYFGNAKDLKKVLQPIMKKAGGKSTISKLVETDWYGQINTYLAGADLNITYNYDVHEYFYANSLTAPRLSDEAISAFVDYKFDNSSVRPGRGWWIQWDFHGGKNSALASHSNDETAYAHRDQLWLWQFYDNIYDYENNTSPYPESGFEFMQGFVATIEDTLPEDRKGKYFNYADTTLDKEEAQKLYWRGNLEKLQAIKAKYDPEDVFGNVVSVEPIA
modifications: (1)..(206) FAD-binding domain; (207)..(474) substrate-binding domain
Which results are given for B1?
Km [2]: 21 ± 2 mM; kcat on MeGlcA [2]: 0.0152 ± 0.001 s⁻¹; Km [3]: 8.1 mM; activity retained on cellobiose [4]: 100%; activity retained on glucose [5]: more than 50%; efficiency on MeGlcA oxidation [6]: 62%; nmol oxidized GlcA Mean [7]: -0.03566 nmol; specific activity on MeGlcA (in words) ([8]; among GOOX variants, FIG. 7): highest specific activity; nmol oxidized MeGlcA Mean [8]: 2.5 nmol; activity with MeGlcA as substrate (in words) ([8]; screening, compared with wtGOOX): improved activity over wtGOOX

B2: N388S-V38A: GOOX variant with N388S and V38A relative to SEQ ID NO: 1 (protein, listed as Sarocladium strictum)
chain: B1 chain with V38A, A300Y, N388S
modifications: (1)..(206) FAD-binding domain; (207)..(474) substrate-binding domain
With B2 as the molecule, how does the “nmol oxidized GlcA Mean” value [7] read?
The value was 0.02835 nmol.

What about the “nmol oxidized MeGlcA Mean” value [8] of the same molecule?
The value was 0.9559 nmol.

B3: wtGOOX: Wild-type gluco-oligosaccharide oxidase from Sarocladium strictum, SEQ ID NO: 1, with C-terminal myc-tag and 6xHis-tag (protein, listed as Sarocladium strictum)
chain: B1 chain with A300Y
modifications: C-terminal myc-tag and 6xHis-tag; (1)..(206) FAD-binding domain; (207)..(474) substrate-binding domain
With B3 as the molecule, how does the “nmol oxidized GlcA Mean” value [7] read?
Its value is -0.04572 nmol.

What about the “nmol oxidized MeGlcA Mean” value [8] of the same molecule?
The value was 0.9032 nmol.

B4: Y72A: GOOX variant with Y72A relative to SEQ ID NO: 1 (protein, listed as Sarocladium strictum)
chain: B1 chain with Y72A, A300Y
modifications: (1)..(206) FAD-binding domain; (207)..(474) substrate-binding domain
With B4 as the molecule, how does the “nmol oxidized GlcA Mean” value [7] read?
The value was -0.01097 nmol.

And the “nmol oxidized MeGlcA Mean” value [8]?
Its value is 0.8997 nmol.
